The supplement of paper PMC12042874
± gives the uncertainty stated by the source.

Assay: amyloid nucleation score (Sup35N fusion, yeast selection) (log enrichment); library NNK2; higher = more nucleation; inactive = no reads after selection
Summary of the method: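 Sup35N was fused to peptides of 20 random codons and expressed in psi-negative yeast, which were induced with 100 μM copper sulfate for 24 hours and then grown on medium lacking adenine and uracil for 7 days at 30°C. Plasmid inserts from input and output were sequenced on Illumina. The nucleation score is the DiMSum log enrichment of output over input reads, centred on the mode score of non-aggregating sequences. Sequences with under 100 input reads were left out, and random libraries had three technical output replicates.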

Row | Substance | amyloid nucleation score
1 | YNCSI | 4.29 ± 0.11
2 | FVVIWAMDIDVLWSMGGKID | 5.46 ± 0.061
3 | RIVMLGFVN | -1.44 ± 0.54
4 | TLRIWYCWHDSAYTSSDHII | 1.45 ± 0.2
5 | QLLRCNRRSKMLDR | -0.156 ± 0.76
6 | YRDRDLC | -0.339 ± 0.34
7 | GFPVWNVYLKSNGHVCDGLG | 1.31 ± 0.15
8 | VINLDKLIFVLEDNCIVFWE | 6.374 ± 0.023
9 | NKATNKTDRVMKPSAKKDTE | -0.796 ± 0.39
10 | CFKDYQIGSCKQSL | -0.499 ± 0.76
11 | DYVCGGGFLTKDVSACGLYV | 0.685 ± 0.46
12 | ANGVSILDFRKHATFWWWET | -0.103 ± 0.29
13 | YLKRPRPRRLGSP | 0.405 ± 0.33
14 | LPRMGSEWFVCWLCSCVATW | 0.718 ± 0.57
15 | FFVFGSWPHSSQGEGSLHKG | 0.387 ± 0.8
16 | LTDCLLLLFGLLGRFYRNLS | inactive
17 | WPIMMYGKFVFDRHIHCGAL | 0.141 ± 0.41
18 | SYLDILCVRIVSHHCSVSSK | 0.112 ± 0.46
19 | GSCVIM | 1.36 ± 0.67
20 | FHHSHANSNVSRGIDIFGAV | -0.454 ± 0.32
21 | SLSGVV | inactive
22 | LTPLSNIGCTCDYLMDCSYL | inactive

Row | Substance | amyloid nucleation score
23 | NLKRMFYVGCSIVSRKLIGR | -0.095 ± 0.5
24 | KSEAGYA | 0.658 ± 0.51
25 | PLPGFRIMFLWRQNALPVQP | 0.196 ± 0.64
26 | YGVVYAYYPDQVQWVGCNE | -0.24 ± 0.64
27 | FYCVNV | -0.383 ± 0.64
28 | SESVL | -1 ± 0.76
29 | SCRGDKQERKPIHYVRHIWY | -0.798 ± 0.24
30 | MPPGCRMIFALIVVVIQFNF | 0.04 ± 0.76
31 | YFDGVIWLLTYRIFMANDYS | inactive
32 | QKYRVL | -0.611 ± 0.32
33 | SCGYFITKKEH | -0.679 ± 0.3
34 | SFMGEK | -0.453 ± 0.74
35 | VFVRRVGPQLFDPRSSNGVD | 0.951 ± 0.81
36 | DVLWTLQLLFDPVGLCLAMK | 0.391 ± 0.41
37 | DCFFFKSWVSLGKIMLSTFS | -0.997 ± 1.1
38 | SPRLAGVWVH | -0.669 ± 0.63
39 | VDQCPYRFKFRVSYMMVFYM | 5.67 ± 0.086
40 | IIILYCGRYLINWTFLSCAY | inactive
41 | VLCTRRLPLYHSSNDQ | 0.128 ± 0.32
42 | RSILEM | -0.302 ± 0.61
43 | HEGNKRARYLALLSEIYFQW | 4.65 ± 0.084
44 | VVRYLPCRRLPVWWVVCYEI | 0.488 ± 0.29

Row | Substance | amyloid nucleation score
45 | PALTIEIMSYGASQHGFSLV | 0.367 ± 0.28
46 | VNDLLTPCGIHLQPVWDYES | -0.013 ± 0.49
47 | CSVWWLWSLRM | 1.13 ± 0.43
48 | KYVSCNLLIGWYTLFSFYPF | -0.649 ± 0.4
49 | ILQYN | -1.49 ± 0.62
50 | VLHCHWTGFSRSTCVHLVHF | 3.63 ± 0.084
51 | HLTVFVDLSVRLRQMYRRYS | 5.56 ± 0.069
52 | TVRANLKTRCMSRTTNQEHT | 1.85 ± 0.15
53 | VLRGSFKGFFYRWIKCGFEW | -1.24 ± 0.64
54 | DDRELL | -0.32 ± 0.63
55 | WSWRGS | 0.629 ± 0.52
56 | LAHHMF | 0.429 ± 0.8
57 | DRRMGLIVPRMSDRTDPFSY | 0.489 ± 0.29
58 | TVMLCSMISYKAVLVTYVGG | 1.87 ± 0.13
59 | FYIYGNSCSPYIML | -0.681 ± 1
60 | MVDKNNAKINHSR | inactive
61 | YLCSSRITL | 1.31 ± 0.47
62 | SACVWVNICTSASNGDPG | 7.445 ± 0.039
63 | GYAYLSLHKA | 0.342 ± 0.2
64 | WPGLCYCGMPVRMNWLLVTP | -0.661 ± 1.1
65 | HSFPRCNSVHWPDDIGGCDG | 4.58 ± 0.047
66 | RAVDDYRE | 0.88 ± 0.3

Row | Substance | amyloid nucleation score
67 | FSDNTVNTQQVEGIYQIDPN | -0.705 ± 0.46
68 | NVLSWKHMRAKGVNWFGGWV | -0.066 ± 0.27
69 | LHIESRLRRSSQEKSN | 0.012 ± 0.45
70 | YRLIDVYWS | -0.632 ± 1.1
71 | QVWSFDGCS | -0.15 ± 0.4
72 | DLSQYDCVNVFALPGWCNNT | 4.35 ± 0.048
73 | FYMTYWISPMVIQWVFTDYA | 5.571 ± 0.034
74 | DWCTAAGDEMDMVVGGKVPN | 0.427 ± 0.34
75 | SSSDFEFSHVIKGAIFRLFT | -1.2 ± 1
76 | RSSRW | 2.82 ± 0.1
77 | FIERILAVSCFAYFVKPSTV | 5.44 ± 0.042
78 | KLISCGCVLADWNMGYP | 3.76 ± 0.12
79 | LAVKRMFSNFIFKAGTRNIW | inactive
80 | RMLSRSRWLTI | -0.169 ± 0.34
81 | RRFLNGFFRVQRLRYRHPFI | -0.005 ± 0.63
82 | DVDEVW | -1.09 ± 0.61
83 | SLEFCLVWFSSMRRMCV | 0.673 ± 0.48
84 | LQCRLIRVMYVMHCDVWVV | -0.087 ± 0.24
85 | FCKVGFALLGVNQDVLYEMS | -0.714 ± 1
